Laboratory results published in patent publication US20140274782A1, “AFFINITY REAGENTS AND METHODS FOR DETECTION, PURIFICATION, AND PROTEOMIC ANALYSIS OF METHYLATED PROTEINS” (The Board of Trustees of the Leland Stanford Junior …, priority 2013, published 2014).

How the values were obtained:
[1] = test system: 3×MBT domain of L3MBTL1; assay: Triple SILAC pull-down, 3xMBT/3xMBTD355N ratio (cytoplasmic, nuclear and chromatin fractions of 293T cells); assay type: binding, human; settings: for Protein Ratios 3xMBT/D355N: pull-down by 3xMBT vs 3xMBTD355N; for 3xMBT/D355N UNC Heavy: experiment with UNC0638 in heavy SILAC media; for 3xMBT/D355N UNC Light: experiment with UNC0638 in light SILAC media;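 as to all read-outs here: proteins quantified with MaxQuant, requiring at least two unique peptides and quantification in both label directions, normalized to the mean of proteins from a digested loading control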
[2] = target: T1, G9a and GLP (Homo sapiens, UniProt Q96KQ7+Q9H9B1); assay: Triple SILAC pull-down after UNC0638 treatment of 293T cells, DMSO/UNC0638 ratio of protein captured by 3×MBT; assay type: cell-based; settings: for Protein Ratios DMSO/UNC0638: SILAC ratio of protein captured by 3xMBT, 293T cells treated 24 hours with UNC0638 at 2.5 μM or DMSO; for Relative to UNC0638 UNC Heavy: UNC0638 in heavy SILAC media; for Relative to UNC0638 UNC Light: UNC0638 in light SILAC media; for Relative to UNC0638 Average: average of UNC Light and UNC Heavy experiments;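 as to all read-outs here: mass spectrometry (Q-Exactive) SILAC quantitation, DMSO/UNC0638 ratio computed after subtracting 3×MBTD355N mutant pull-down background, only proteins with at least twofold 3×MBT over mutant signal considered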
T1 construct: endogenous in cells; host or cells: HEK 293T
T1 sequence (Q96KQ7 2-1210 limits assumed): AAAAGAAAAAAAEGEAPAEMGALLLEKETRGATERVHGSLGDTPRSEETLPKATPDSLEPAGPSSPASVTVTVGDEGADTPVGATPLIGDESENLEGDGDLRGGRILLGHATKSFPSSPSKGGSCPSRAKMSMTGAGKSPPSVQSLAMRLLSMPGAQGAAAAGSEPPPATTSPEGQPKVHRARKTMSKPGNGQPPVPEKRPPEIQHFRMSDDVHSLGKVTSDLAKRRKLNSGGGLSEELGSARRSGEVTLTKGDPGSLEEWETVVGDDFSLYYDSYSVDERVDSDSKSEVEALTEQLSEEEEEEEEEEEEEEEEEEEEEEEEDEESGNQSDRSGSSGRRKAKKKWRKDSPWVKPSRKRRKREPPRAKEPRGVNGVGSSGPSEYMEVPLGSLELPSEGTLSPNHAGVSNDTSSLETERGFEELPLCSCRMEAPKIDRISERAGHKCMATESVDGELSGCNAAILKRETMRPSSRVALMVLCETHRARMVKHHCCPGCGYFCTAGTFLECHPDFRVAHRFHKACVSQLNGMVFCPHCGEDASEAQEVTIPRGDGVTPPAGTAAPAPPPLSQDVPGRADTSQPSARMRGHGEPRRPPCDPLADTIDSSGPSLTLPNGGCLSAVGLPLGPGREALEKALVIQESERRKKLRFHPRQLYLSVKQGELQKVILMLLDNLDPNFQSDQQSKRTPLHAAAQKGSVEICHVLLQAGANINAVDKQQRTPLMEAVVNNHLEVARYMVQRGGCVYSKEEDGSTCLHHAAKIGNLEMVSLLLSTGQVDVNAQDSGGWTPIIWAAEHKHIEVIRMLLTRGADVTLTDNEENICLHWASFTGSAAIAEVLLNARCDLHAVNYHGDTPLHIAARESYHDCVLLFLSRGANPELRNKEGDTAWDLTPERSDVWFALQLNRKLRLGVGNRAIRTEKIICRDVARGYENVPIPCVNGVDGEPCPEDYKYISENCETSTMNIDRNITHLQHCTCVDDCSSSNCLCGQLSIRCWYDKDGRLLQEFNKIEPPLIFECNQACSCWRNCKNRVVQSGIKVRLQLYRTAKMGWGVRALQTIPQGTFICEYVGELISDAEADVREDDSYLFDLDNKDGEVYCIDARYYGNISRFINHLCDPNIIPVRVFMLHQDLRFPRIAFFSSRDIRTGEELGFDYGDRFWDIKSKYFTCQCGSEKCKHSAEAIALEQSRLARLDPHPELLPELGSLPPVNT
T1 sequence (Q9H9B1 2-1298 limits assumed): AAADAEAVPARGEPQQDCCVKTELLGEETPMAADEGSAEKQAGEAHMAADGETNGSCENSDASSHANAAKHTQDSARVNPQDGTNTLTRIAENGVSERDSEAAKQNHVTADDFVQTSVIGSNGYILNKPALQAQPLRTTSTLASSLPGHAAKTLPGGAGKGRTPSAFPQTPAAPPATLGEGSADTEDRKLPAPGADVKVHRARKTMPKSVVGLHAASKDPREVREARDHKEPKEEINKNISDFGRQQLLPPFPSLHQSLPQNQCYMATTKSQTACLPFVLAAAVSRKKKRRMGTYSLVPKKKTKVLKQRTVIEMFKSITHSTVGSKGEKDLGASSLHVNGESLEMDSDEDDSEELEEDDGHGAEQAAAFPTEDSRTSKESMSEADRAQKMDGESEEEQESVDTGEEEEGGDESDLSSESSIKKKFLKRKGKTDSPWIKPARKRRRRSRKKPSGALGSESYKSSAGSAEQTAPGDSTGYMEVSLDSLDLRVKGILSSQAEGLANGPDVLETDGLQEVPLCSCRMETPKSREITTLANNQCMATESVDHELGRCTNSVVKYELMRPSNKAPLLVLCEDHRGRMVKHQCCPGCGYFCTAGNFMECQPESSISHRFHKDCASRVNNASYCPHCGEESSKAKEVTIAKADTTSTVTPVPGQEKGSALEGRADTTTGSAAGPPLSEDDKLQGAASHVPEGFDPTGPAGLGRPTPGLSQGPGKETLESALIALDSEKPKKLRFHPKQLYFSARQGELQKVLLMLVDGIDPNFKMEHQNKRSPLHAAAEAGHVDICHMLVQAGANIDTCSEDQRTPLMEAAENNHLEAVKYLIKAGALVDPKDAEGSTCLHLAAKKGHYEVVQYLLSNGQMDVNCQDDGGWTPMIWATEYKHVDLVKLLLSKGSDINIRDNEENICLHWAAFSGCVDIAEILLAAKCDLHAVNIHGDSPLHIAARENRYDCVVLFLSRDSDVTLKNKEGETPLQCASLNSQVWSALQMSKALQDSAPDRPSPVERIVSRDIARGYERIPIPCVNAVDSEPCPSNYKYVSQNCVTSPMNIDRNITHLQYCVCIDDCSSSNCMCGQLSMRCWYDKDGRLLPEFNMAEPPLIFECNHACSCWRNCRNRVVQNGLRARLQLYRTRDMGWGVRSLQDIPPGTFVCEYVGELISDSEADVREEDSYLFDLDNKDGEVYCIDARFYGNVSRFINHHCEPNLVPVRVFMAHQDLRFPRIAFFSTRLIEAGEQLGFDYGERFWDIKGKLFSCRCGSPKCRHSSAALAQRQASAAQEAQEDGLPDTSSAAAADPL

[3] = SILAC ratio, pull-down 3xMBT vs 3xMBTD355N
[4] = SILAC ratio DMSO/UNC0638 of protein pulled down with 3xMBT
[5] = SILAC ratio 3xMBT vs 3xMBTD355N pull-down, 293T cells, all values in log base 2
[6] = SILAC ratio DMSO relative to UNC0638, pull-down with 3xMBT, all values in log base 2

Row | Protein Ratios DMSO/UNC0638 [2] | Relative to UNC0638 UNC Heavy [2, 4] | Relative to UNC0638 UNC Light [2, 4] | Relative to UNC0638 Average [2] | Relative to UNC0638 UNC Heavy [2, 6] | Relative to UNC0638 UNC Light [2, 6] | Relative to UNC0638 Average ([2]; all values in log base 2) | Substance | Protein Ratios 3xMBT/D355N ([1]; SILAC ratio, 293T cells) | 3xMBT/D355N UNC Heavy [1, 3] | 3xMBT/D355N UNC Light [1, 3] | 3xMBT/D355N UNC Heavy [1, 5] | 3xMBT/D355N UNC Light [1, 5]
1 | 1.4 | – | – | – | – | – | – | ATP-dependent DNA helicase Q1 | 18.8 | – | – | – | –
2 | – | – | – | – | −0.03 log base 2 | −0.77 log base 2 | −0.40 log base 2 | EEF1G | – | – | – | −0.67 log base 2 | −0.28 log base 2
3 | – | – | – | – | 0.54 log base 2 | −0.45 log base 2 | 0.04 log base 2 | UHRF1 | – | – | – | 3.68 log base 2 | 2.24 log base 2
4 | – | 0.04 log base 2 | 0.31 log base 2 | 0.18 log base 2 | – | – | – | EIF4E | – | 2.40 log base 2 | 2.40 log base 2 | – | –
5 | – | – | – | – | 1.15 log base 2 | −1.83 log base 2 | −0.34 log base 2 | PPP1CA | – | – | – | 1.51 log base 2 | 0.12 log base 2
6 | – | 0.31 log base 2 | 0.14 log base 2 | 0.22 log base 2 | – | – | – | TUBB | – | 1.16 log base 2 | 1.42 log base 2 | – | –
7 | – | 0.11 log base 2 | 0.17 log base 2 | 0.14 log base 2 | – | – | – | PRPF8 | – | 2.51 log base 2 | 2.50 log base 2 | – | –
8 | – | – | – | – | 0.22 log base 2 | −0.04 log base 2 | 0.09 log base 2 | ABCF1 | – | – | – | 2.36 log base 2 | 2.94 log base 2
9 | – | 0.00 log base 2 | 0.37 log base 2 | 0.18 log base 2 | – | – | – | DIDO1 | – | 1.35 log base 2 | 3.36 log base 2 | – | –

Second part, the substance before the results:

Row | Substance | Protein Ratios DMSO/UNC0638 [2] | Relative to UNC0638 UNC Heavy [2, 4] | Relative to UNC0638 UNC Light [2, 4] | Relative to UNC0638 Average [2] | Relative to UNC0638 UNC Heavy [2, 6] | Relative to UNC0638 UNC Light [2, 6] | Relative to UNC0638 Average ([2]; all values in log base 2) | Protein Ratios 3xMBT/D355N ([1]; SILAC ratio, 293T cells) | 3xMBT/D355N UNC Heavy [1, 3] | 3xMBT/D355N UNC Light [1, 3] | 3xMBT/D355N UNC Heavy [1, 5] | 3xMBT/D355N UNC Light [1, 5]
10 | YWHAE | – | 0.58 log base 2 | −0.12 log base 2 | 0.23 log base 2 | – | – | – | – | 1.86 log base 2 | 2.52 log base 2 | – | –
11 | CFL1 | – | 0.19 log base 2 | 0.07 log base 2 | 0.13 log base 2 | – | – | – | – | 2.43 log base 2 | 3.06 log base 2 | – | –
12 | SWI/SNF-related matrix-associated actin-dependent regulator of chromatin subfamily A member 5 | 1.3 | – | – | – | – | – | – | 5.8 | – | – | – | –
13 | DNMT1 | – | 0.46 log base 2 | −0.19 log base 2 | 0.13 log base 2 | – | – | – | – | 1.70 log base 2 | 2.02 log base 2 | – | –
14 | SNRPA | – | 0.16 log base 2 | 0.11 log base 2 | 0.14 log base 2 | – | – | – | – | 4.73 log base 2 | 5.10 log base 2 | – | –
15 | MCTS1 | – | 0.04 log base 2 | 0.20 log base 2 | 0.12 log base 2 | – | – | – | – | 2.76 log base 2 | 2.56 log base 2 | – | –
16 | CD3EAP | – | – | – | – | −0.02 log base 2 | 0.01 log base 2 | 0.00 log base 2 | – | – | – | 2.30 log base 2 | 1.86 log base 2
17 | DDX6 | – | 0.14 log base 2 | 0.22 log base 2 | 0.18 log base 2 | – | – | – | – | 3.18 log base 2 | 3.05 log base 2 | – | –
18 | SEC24C | – | – | – | – | 0.21 log base 2 | −0.05 log base 2 | 0.08 log base 2 | – | – | – | 2.58 log base 2 | 2.17 log base 2
19 | CSNK2B | – | – | – | – | 0.21 log base 2 | −0.01 log base 2 | 0.10 log base 2 | – | – | – | 2.83 log base 2 | 2.65 log base 2
20 | DNA-binding protein A | 1.4 | – | – | – | – | – | – | 11.1 | – | – | – | –
21 | HDGF | – | 0.23 log base 2 | 0.22 log base 2 | 0.23 log base 2 | – | – | – | – | 1.65 log base 2 | 2.78 log base 2 | – | –
22 | G3BP1 [Hit G3BP1] | – | 0.23 log base 2 | 0.15 log base 2 | 0.19 log base 2 | – | – | – | – | 2.02 log base 2 | 2.72 log base 2 | – | –
23 | SRSF3 | – | 0.25 log base 2 | 0.23 log base 2 | 0.24 log base 2 | – | – | – | – | 2.63 log base 2 | 2.55 log base 2 | – | –
